Columns and labels:
[1] = target: expanded form (EX) of the P22 virus-like particle (bacteriophage P22) (UniProt P26747); test: SEC-MALS
[2] = target: expanded form (EX) of the P22 virus-like particle (bacteriophage P22) (UniProt P26747); test: SPR
[3] = target: Dec truncated by the first 11 N-terminal residues (bacteriophage L); test: SEC
[4] = target: Dec truncated by the first 20 N-terminal residues (bacteriophage L); test: SEC
[5] = target: decoration protein (Dec) from bacteriophage L, wild type with N-terminal 6x histidine tag (bacteriophage L); test: SEC

Substance | stoichiometry N (Dec monomers per particle) [1] | KD1 (tight site, two-site fit) [2] [nM] | ka1 (tight site, two-site fit) [2] [M⁻¹ s⁻¹] | kd1 (tight site, two-site fit) [2] [s⁻¹] | other results
Dec fused at its C-terminus to the 21 amino acid CD47 mimic Self-peptide | 114 | 18.3 | 11200 |  | 
Dec fused at its C-terminus to the soluble region of murine CD40L (from UniProt P27548 112-260) | 51 | 30.8 | 6440 | 0.0002 | 
Dec truncated by the first 11 N-terminal residues (domain or fragment) | 214 |  |  |  | stoichiometry N [3]: 3
Dec truncated by the first 20 N-terminal residues (domain or fragment) |  |  |  |  | stoichiometry N [4]: 3
decoration protein (Dec) from bacteriophage L, wild type with N-terminal 6x histidine tag (natural protein) | 155 |  | 11500 | 0.000106 | stoichiometry N [5]: 3; KD2 (weak site, two-site fit) [2]: 1500 nM; Kd [2]: 0.024 µM; half-life of binding at the tight site [2]: > 60 h; ka2 (weak site, two-site fit) [2]: 1980 M⁻¹ s⁻¹; koff [2]: 0.00033 s⁻¹; kon [2]: 13800 M⁻¹ s⁻¹

Source: publication PMC4863989
